Data: paper PMC5316886

Molecular target: recombinant XIAP, I. scapularis (as used in the native gel, the plate-coated ELISA and the ubiquitylation assay) (I. scapularis)
Test: ELISA; 0.2 μg of XIAP coated on the plate (0.5 M carbonate-bicarbonate pH 9.5); increasing concentrations of Bendless, room temperature 1 hour; detected with α-UbcH13

A concentration at saturation of binding of 9.1 µM was found for “recombinant Bendless, I. scapularis (enzyme)” in this work.
